The values that follow come from article PMC4461205, “Structural bases for N-glycan processing by mannoside phosphorylase” (Acta Crystallographica Section D: Biological Crystallography, 2015).

By stoichiometry N is commonly meant a count of units in the complex or per binding partner.

Assay [1] has as its target T1, Uhgb_MP (uncultured organism, UniProt D9ZDQ9). In words: X-ray crystal structure, co-crystallization. It counts as binding. Set-up: homohexamer, 240 kDa by SEC-MALLS. To be noted: +1 subsite; with phosphate, glycerol in -1 subsite; co-crystallized with 5 mM N-acetylglucosamine, pH 7.0; 4C1 chair; 1.60 A; also with mannose in 4udk (1.76 A).
The target of assay [2] is T1, Uhgb_MP. The note with it: catalytic site; phosphate from 20 mM potassium phosphate buffer pH 7.0; glycerol in -1 subsite; 1.80 A; also in 4udj, 4udg, 4udk.
Assay [3] deals with Uhgb_MP, β-1,4-mannopyranosyl-chitobiose phosphorylase (GH130_2 mannoside phosphorylase) (uncultivated Bacteroides bacterium (human gut)). The assay is described as follows: SEC-MALS; 30 µl of gel-filtered Uhgb_MP at 6 mg/ml on Superdex 200 HR 10/300 in 20 mM potassium phosphate pH 7.0, 150 mM NaCl, 0.4 ml/min, 15°C. (In general: Size exclusion chromatography separates by hydrodynamic size, large species first.)

Assay [4] shares this target. The assay is described as follows: SAXS (SEC-SAXS); Bio SEC3 300 column on line with SAXS, 10°C; phosphate buffer or Tris-glycerol buffer (aggregation seen in both); hexamer read from data in Tris-glycerol buffer with 1 mM TCEP; ab initio envelope and rigid-body modelling.
Assay [5] shares this target. The assay is described as follows: crystal structure; sitting-drop vapour diffusion at 12°C; protein 9-12 mg/ml in 20 mM potassium phosphate pH 7.0, 150 mM NaCl, with or without 5 mM mannose and/or 5 mM N-acetylglucosamine; PEG 3350, ammonium chloride; space group P212121, six molecules per asymmetric unit.

T1 sequence (D9ZDQ9 entry or part of it): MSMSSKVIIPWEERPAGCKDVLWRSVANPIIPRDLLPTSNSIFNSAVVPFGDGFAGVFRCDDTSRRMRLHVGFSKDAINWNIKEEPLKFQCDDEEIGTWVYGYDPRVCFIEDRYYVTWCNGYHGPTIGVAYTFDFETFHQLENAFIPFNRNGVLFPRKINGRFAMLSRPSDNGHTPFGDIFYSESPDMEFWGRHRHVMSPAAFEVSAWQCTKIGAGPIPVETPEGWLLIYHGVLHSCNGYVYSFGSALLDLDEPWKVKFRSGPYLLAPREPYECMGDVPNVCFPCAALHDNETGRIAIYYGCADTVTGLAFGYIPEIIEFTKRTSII

As for `CC(=O)N[C@H]1C(O)O[C@H](CO)[C@@H](O)[C@@H]1O` (some centres unmarked) [N-acetylglucosamine], in assay [1], the “X-ray crystal structure, co-crystallization” value is “complex with N-acetylglucosamine alone (PDB entry 4udg”. Turning to `O=P(O)(O)O` [inorganic phosphate], the X-ray crystal structure result in assay [2] is “Pi is deeply buried in the catalytic site, strongly stabilized by hydrogen bonds”.

As for “Uhgb_MP, β-1,4-mannopyranosyl-chitobiose phosphorylase (GH130_2 mannoside phosphorylase) (enzyme)”, the stoichiometry N in assay [3] worked out at 6.16; in assay [4], 6; in assay [5], 6.
